Experimental data reported in patent publication US20200069786A1, “COMPOSITION AND PROCESS FOR PREPARING VACCINE” (TREOS BIO ZRT., priority 2018, published 2020).
Where two headings read alike, the source gives them in different places.

Key:
TSA = details: cited from earlier work
[1] = tested on: subjects of 64 clinical studies; details: published clinical trials, cited from earlier work; for IRR: proportion of subjects in the study population with T cell responses induced by the study vaccine
[2] = tested on: metastatic ovarian adenocarcinoma; assay: Patient-A clinical outcome and tumor MRI; format: in vivo, human
From the text: 2017-2018: Patient-A received 8 cycles of vaccination as add-on therapy, and lived 17 months (528 days) after start of the treatment. […] They died in October 2018.
Patient' tumor MRI findings (Baseline Apr. 15, 2016) (BL: baseline for tumor response evaluation on FIG. 22) Disease was confined primarily to liver and lymph nodes. The use of MRI limits detection of lung (pulmonary) metastasis May 2016-January 2017: Olaparib treatment (FU1: follow up 1 on FIG. 22) Dec. […] Peritoneal carcinomatosis with increased amount of ascites. Progressive hepatic tumor and lymph node
Jul. 26, 2017 (after the 2nd Cycle of PIT): (FU4 on FIG. 22) Progression/Pseudo-Progression • Rapid progression in lymph nodes, hepatic, retroperitoneal and thoracic areas, significant pleural fluid and ascites. Initiate Carboplatin, Gemcitabine, Avastin. Sep. […] Nov. […] Remission in hepatic, retroperitoneal area and lymph nodes

[3] = TSA expression rate in BLADDER cancer
[4] = TSA expression rate in Esophageal
[5] = TSA expression rate in HEAD and NECK
[6] = TSA expression rate in MELANOMA
[7] = TSA expression rate in PROSTATE cancer
[8] = TSA expression rate in LEUKEMIAS
[9] = TSA expression rate in Cervical cancer
[10] = FU3, Apr. 6, 2017, after TOPO protocol
[11] = TSA expression rate in GASTRIC cancer
[12] = TSA expression rate in LUNG cancer
[13] = FU1, Olaparib treatment May 2016-January 2017
[14] = FU2, Dec. 25, 2016, before PIT vaccine treatment
[15] = TSA expression rate in PEDIATRIC

Compound: TEX15
- TSA Expression Rate (ER) (TSA; BREAST): 0%
- TSA Expression Rate (ER) (TSA; LUNG): 21%
- TSA Expression Rate (ER) (TSA; THYROID): 0%
- Expression Rate (ER) % (TSA; [3]): 21%
- Expression Rate (ER) % (TSA; TSA expression rate in CRC): 0%
- Expression Rate (ER) % (TSA; [4]): 20%
- Expression Rate (ER) % (TSA; [5]): 11%
- Expression Rate (ER) % (TSA; TSA expression rate in Kidney): 33%
- Expression Rate (ER) % (TSA; [6]): 27%
- Expression Rate (ER) % (TSA; [7]): 13%

Compound: TDRD4
- TSA Expression Rate (ER) (TSA; HCC): 14%

Compound: EZH2
- TSA Expression Rate (ER) (TSA; BRAIN): 100%

Compound: Her2/neu peptide vaccine (p688) (RRLLQETEL; UniProt P04626 688-696, looked up, fragment)
- IRR [1]: 31%

Compound: Iplilimumab (NYESO-1 specific response)
- IRR [1]: 72%
- ORR ([1]; proportion of subjects with objective response (complete and partial response) after vaccination): 25%

Compound: JARID1B
- TSA Expression Rate (ER) (TSA; BREAST): 76%
- TSA Expression Rate (ER) (TSA; HCC): 29%
- TSA Expression Rate (ER) (TSA; LUNG): 55%
- TSA Expression Rate (ER) (TSA; OVARIAN): 71%
- Expression Rate (ER) % (TSA; [8]): 60%
- Expression Rate (ER) % (TSA; [6]): 100%
- Expression Rate (ER) % (TSA; [7]): 100%

Compound: BAGE-5 (RLMKEESPVVSWRLEPEDGTALCFIF; UniProt Q86Y27 18-43, looked up)
- Expression Rate (ER) % (TSA; [6]): 9%

Compound: LDHC
- TSA Expression Rate (ER) (TSA; BREAST): 35%
- TSA Expression Rate (ER) (TSA; LUNG): 29%
- TSA Expression Rate (ER) (TSA; OVARIAN): 43%
- TSA Expression Rate (ER) (TSA; THYROID): 25%
- Expression Rate (ER) % (TSA; TSA expression rate in CRC): 15%
- Expression Rate (ER) % (TSA; [9]): 83%
- Expression Rate (ER) % (TSA; [5]): 0%
- Expression Rate (ER) % (TSA; TSA expression rate in Kidney): 57%
- Expression Rate (ER) % (TSA; [6]): 44%
- Expression Rate (ER) % (TSA; [7]): 38%

Compound: CC[C@@]1(O)C(=O)OCc2c1cc1n(c2=O)Cc2cc3c(CN(C)C)c(O)ccc3nc2-1 [TOPO protocol]
- SUM of lesions (% Δ from BL) [2, 10]: −68.9%
- TL1 (% Δ from BL) [2, 10]: −44.8%
- TL2 (% Δ from BL) [2, 10]: −47.1%
- TL3 (% Δ from BL) [2, 10]: −62.0%
- TL4 (% Δ from BL) [2, 10]: −100.0%

Compound: WT1
- TSA Expression Rate (ER) (TSA; BRAIN): 81%
- TSA Expression Rate (ER) (TSA; BREAST): 7%
- TSA Expression Rate (ER) (TSA; HCC): 86%
- TSA Expression Rate (ER) (TSA; OVARIAN): 63%
- TSA Expression Rate (ER) (TSA; PANCREATIC): 72%
- TSA Expression Rate (ER) (TSA; THYROID): 97%
- Expression Rate (ER) % (TSA; TSA expression rate in CRC): 91%
- Expression Rate (ER) % (TSA; [9]): 5%
- Expression Rate (ER) % (TSA; [4]): 88%

Compound: DBPC
- TSA Expression Rate (ER) (TSA; BREAST): 50%
- TSA Expression Rate (ER) (TSA; HCC): 40%
- TSA Expression Rate (ER) (TSA; LUNG): 30%
- TSA Expression Rate (ER) (TSA; OVARIAN): 20%
- TSA Expression Rate (ER) (TSA; PANCREATIC): 60%
- Expression Rate (ER) % (TSA; TSA expression rate in CRC): 90%
- Expression Rate (ER) % (TSA; [11]): 50%
- Expression Rate (ER) % (TSA; TSA expression rate in Kidney): 10%
- Expression Rate (ER) % (TSA; [7]): 40%

Compound: CASC5
- TSA Expression Rate (ER) (TSA; LUNG): 41%
- TSA Expression Rate (ER) (TSA; PANCREATIC): 27%

Compound: MSLN
- TSA Expression Rate (ER) (TSA; PANCREATIC): 96%

Compound: DKK1
- TSA Expression Rate (ER) (TSA; PANCREATIC): 84%

Compound: BAGE-1 (RLMKEESPVVSWRLEPEDGTALCFIF; UniProt Q13072 18-43, looked up)
- TSA Expression Rate (ER) (TSA; BREAST): 9%
- Expression Rate (ER) % (TSA; TSA expression rate in CRC): 0%
- Expression Rate (ER) % (TSA; [4]): 6%
- Expression Rate (ER) % (TSA; [5]): 6%
- Expression Rate (ER) % (TSA; TSA expression rate in Kidney): 0%
- Expression Rate (ER) % (TSA; [12]): 10%
- Expression Rate (ER) % (TSA; [6]): 26%
- Expression Rate (ER) % (TSA; [7]): 0%

Compound: DCAF12
- TSA Expression Rate (ER) (TSA; LUNG): 89%
- Expression Rate (ER) % (TSA; [7]): 59%

Compound: CDCA1
- TSA Expression Rate (ER) (TSA; BREAST): 64%
- TSA Expression Rate (ER) (TSA; HCC): 100%
- TSA Expression Rate (ER) (TSA; LUNG): 85%
- Expression Rate (ER) % (TSA; [3]): 100%
- Expression Rate (ER) % (TSA; TSA expression rate in CRC): 40%
- Expression Rate (ER) % (TSA; [9]): 18%
- Expression Rate (ER) % (TSA; [4]): 22%
- Expression Rate (ER) % (TSA; [11]): 0%
- Expression Rate (ER) % (TSA; TSA expression rate in Kidney): 100%
- Expression Rate (ER) % (TSA; [7]): 85%

Compound: OIP5
- Expression Rate (ER) % (TSA; [11]): 48%
- Expression Rate (ER) % (TSA; [5]): 12%

Compound: TSGA10
- TSA Expression Rate (ER) (TSA; BRAIN): 83%
- TSA Expression Rate (ER) (TSA; BREAST): 70%
- TSA Expression Rate (ER) (TSA; HCC): 20%
- TSA Expression Rate (ER) (TSA; OVARIAN): 35%
- Expression Rate (ER) % (TSA; [3]): 38%
- Expression Rate (ER) % (TSA; TSA expression rate in CRC): 5%
- Expression Rate (ER) % (TSA; [6]): 25%
- Expression Rate (ER) % (TSA; [7]): 15%

Compound: SOX-6
- TSA Expression Rate (ER) (TSA; BRAIN): 60%

Compound: DMRT1
- Expression Rate (ER) % (TSA; [7]): 24%

Compound: Her2/neu peptide vaccine (p971) (ELVSEFSRM; UniProt P04626 971-979, looked up, fragment)
- IRR [1]: 54%

Compound: NKX3.1
- TSA Expression Rate (ER) (TSA; THYROID): 0%
- Expression Rate (ER) % (TSA; [7]): 70%

Compound: O=C(c1cc(Cc2n[nH]c(=O)c3ccccc23)ccc1F)N1CCN(C(=O)C2CC2)CC1 [Olaparib]
- SUM of lesions (% Δ from BL) [2, 13]: −66.3%
- TL1 (% Δ from BL) [2, 13]: −56.1%
- TL2 (% Δ from BL) [2, 13]: −100.0%
- TL3 (% Δ from BL) [2, 13]: −59.4%
- TL4 (% Δ from BL) [2, 13]: −65.8%
- SUM of lesions (% Δ from BL) [2, 14]: −76.0%
- TL1 (% Δ from BL) [2, 14]: −44.4%
- TL2 (% Δ from BL) [2, 14]: −100.0%
- TL3 (% Δ from BL) [2, 14]: −62.3%
- TL4 (% Δ from BL) [2, 14]: −100.0%

Compound: SSX-7
- TSA Expression Rate (ER) (TSA; BRAIN): 0%

Compound: PRAME
- TSA Expression Rate (ER) (TSA; BRAIN): 56%
- TSA Expression Rate (ER) (TSA; BREAST): 49%
- TSA Expression Rate (ER) (TSA; LUNG): 63%
- TSA Expression Rate (ER) (TSA; OVARIAN): 59%
- TSA Expression Rate (ER) (TSA; THYROID): 60%
- Expression Rate (ER) % (TSA; [3]): 19%
- Expression Rate (ER) % (TSA; TSA expression rate in CRC): 4%
- Expression Rate (ER) % (TSA; [11]): 21%
- Expression Rate (ER) % (TSA; [5]): 61%
- Expression Rate (ER) % (TSA; TSA expression rate in Kidney): 40%
- Expression Rate (ER) % (TSA; [8]): 23%
- Expression Rate (ER) % (TSA; [6]): 90%
- Expression Rate (ER) % (TSA; [15]): 75%
- Expression Rate (ER) % (TSA; [7]): 10%

Compound: SYCE1
- Expression Rate (ER) % (TSA; [12]): 11%

Compound: MPHOSPH1
- Expression Rate (ER) % (TSA; [3]): 90%

Compound: SSX-1
- TSA Expression Rate (ER) (TSA; BRAIN): 0%
- TSA Expression Rate (ER) (TSA; BREAST): 9%
- TSA Expression Rate (ER) (TSA; HCC): 69%
- TSA Expression Rate (ER) (TSA; OVARIAN): 2%
- TSA Expression Rate (ER) (TSA; PANCREATIC): 0%
- TSA Expression Rate (ER) (TSA; THYROID): 0%
- Expression Rate (ER) % (TSA; [3]): 7%
- Expression Rate (ER) % (TSA; TSA expression rate in CRC): 2%
- Expression Rate (ER) % (TSA; [9]): 4%
- Expression Rate (ER) % (TSA; [4]): 0%
- Expression Rate (ER) % (TSA; [11]): 13%
- Expression Rate (ER) % (TSA; [5]): 40%
- Expression Rate (ER) % (TSA; TSA expression rate in Kidney): 0%
- Expression Rate (ER) % (TSA; [8]): 31%
- Expression Rate (ER) % (TSA; [12]): 8%
- Expression Rate (ER) % (TSA; TSA expression rate in LYMPHOMAS): 6%
- Expression Rate (ER) % (TSA; [6]): 25%
- Expression Rate (ER) % (TSA; [15]): 76%
- Expression Rate (ER) % (TSA; [7]): 7%

Compound: MUC-1
- Expression Rate (ER) % (TSA; [7]): 34%

Compound: MAGE-A10
- TSA Expression Rate (ER) (TSA; BREAST): 34%
- TSA Expression Rate (ER) (TSA; HCC): 15%
- TSA Expression Rate (ER) (TSA; LUNG): 24%
- TSA Expression Rate (ER) (TSA; OVARIAN): 38%
- TSA Expression Rate (ER) (TSA; PANCREATIC): 1%
- TSA Expression Rate (ER) (TSA; THYROID): 2%
- Expression Rate (ER) % (TSA; [3]): 28%
- Expression Rate (ER) % (TSA; TSA expression rate in CRC): 3%
- Expression Rate (ER) % (TSA; [9]): 0%
- Expression Rate (ER) % (TSA; [4]): 27%
- Expression Rate (ER) % (TSA; [11]): 30%
- Expression Rate (ER) % (TSA; [5]): 12%
- Expression Rate (ER) % (TSA; TSA expression rate in Kidney): 1%
- Expression Rate (ER) % (TSA; [8]): 0%
- Expression Rate (ER) % (TSA; [6]): 45%
- Expression Rate (ER) % (TSA; [15]): 33%
- Expression Rate (ER) % (TSA; [7]): 10%

Compound: SPINLW1
- TSA Expression Rate (ER) (TSA; BRAIN): 47%

Compound: EPHA2
- TSA Expression Rate (ER) (TSA; BRAIN): 95%
- Expression Rate (ER) % (TSA; [15]): 100%
